Measurements as given in article PMC4872150.

Target: nucleolin (UniProt P19338)
Test: SPR
Conditions: BIAcore 3000, nucleolin on CM5 chip, 10 mM HEPES, 150 mM NaCl, 3 mM EDTA, 0.005% surfactant P20, pH 7.4, 25 °C

UniProt P19338, sequence (P19338 whole entry): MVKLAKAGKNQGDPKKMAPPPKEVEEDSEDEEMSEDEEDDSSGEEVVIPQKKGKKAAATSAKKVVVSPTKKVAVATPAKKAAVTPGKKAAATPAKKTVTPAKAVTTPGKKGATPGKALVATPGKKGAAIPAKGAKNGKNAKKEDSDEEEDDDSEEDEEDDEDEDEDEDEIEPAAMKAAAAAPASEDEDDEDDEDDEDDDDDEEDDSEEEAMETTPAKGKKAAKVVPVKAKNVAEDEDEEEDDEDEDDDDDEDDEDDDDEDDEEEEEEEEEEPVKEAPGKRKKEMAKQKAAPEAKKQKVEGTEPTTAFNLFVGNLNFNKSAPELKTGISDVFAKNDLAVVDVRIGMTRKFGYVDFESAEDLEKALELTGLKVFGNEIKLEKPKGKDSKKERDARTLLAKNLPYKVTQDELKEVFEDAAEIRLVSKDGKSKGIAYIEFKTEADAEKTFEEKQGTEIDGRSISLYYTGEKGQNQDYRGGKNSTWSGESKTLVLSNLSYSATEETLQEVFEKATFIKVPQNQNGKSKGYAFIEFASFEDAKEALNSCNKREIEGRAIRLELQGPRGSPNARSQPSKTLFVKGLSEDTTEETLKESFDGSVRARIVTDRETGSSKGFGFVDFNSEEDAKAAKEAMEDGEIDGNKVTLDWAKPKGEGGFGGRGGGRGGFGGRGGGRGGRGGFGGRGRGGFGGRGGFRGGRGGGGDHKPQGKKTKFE

GGTGGTGGTGGNTGTGGTGGTGGNGG [FAN-1224dI]
Kd (N = 2'-deoxyinosine at positions 12 and 24 (replacing T)): 32.2 nM

GGTGGTGGTGGTNGTGGTGGTGGNGG [FAN-1324dI]
Kd (N = 2'-deoxyinosine at positions 13 and 24 (replacing T)): 30.9 nM

GGTGGTGGTGGTTGNGGTGGTGGNGG [FAN-1524dI]
Kd (N = 2'-deoxyinosine at positions 15 and 24 (replacing T)): 37 nM

GGTGGTGGTGGTTGTGGTGGTGGTGG [AS1411]
Kd: 169 nM
